From the nanobody polyreactivity screen of Harvey et al. (2022)

Experiment: yeast display, Sf9 membrane polyspecificity reagent, FACS + sequencing; frameworks hold sequencing errors
Outline: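 Synthetic nanobody libraries on Saccharomyces cerevisiae BJ5465 were galactose-induced for 36–48 hours, stained 1 hour at 4 °C with 10% biotinylated, detergent-solubilized Sf9 membrane reagent and enriched on streptavidin microbeads. FACS then separated cells into low and high (top ~1%) gates by anti-HA (expression) and streptavidin (reagent binding) fluorescence. Genes were colony-PCR amplified, MiSeq 2 × 250 sequenced and CDR-length filtered. A clone's polyreactivity label is that of its gate of origin.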

Row | Sequence | polyreactivity (PSR sort gate)
1 | QVQLVESGGGLVQAGGSLRLSCAASGSIFYSYAMGWYRHAPGKERELVAAISWDASTYYADSVKGRFTISRDNAKNTVYLQMNSLKPEDTAVYYCNADIPYYFVYDAYDFWGQGTQVTVSS | low polyreactivity
2 | QVQLVESGGGLVQAGGSLRLSCAASGSTFEYNAMGGYRQAPGKERELVASSTNYADSVKGRFTISRDNAKNTVYLQMNSLKPEDTAVYYCAREQGVNRNHDYWGQGTQVTVSS | low polyreactivity
3 | QVQIVESGGVLVQAGGSIRLSCDASGSLFTIYAMGCYRQAPGKERELVAAITWSGGSTYYADSVKGRYTISRDNAKNTVNLQMNSLKPEDTAVYYCAADAYTGDIPYWWPWNNEYDYWGQGTQVTLSS | low polyreactivity
4 | QVQLVESGGGLVQAGGSLSLSCAASGSTFDYYAMGWYRQAPGKEWELVADITYSGGSTYYADSVKGRFTISRDNAKNTVYLQMNSLKPEDTAVYYCNAYYTVYTRYDYWGQGTQVTVSS | high polyreactivity
5 | QVQLVESGRGLVQAGGSLRLSCAASGYIFDRYAMGWSRQAPGKERELVAAISGRGGSTYYADSVKGRFTISRDNAKNTVYLQMNSLNPEDTAVYYCARDVYVRNGQRARYDSWGQGTQVTVSS | high polyreactivity
6 | QVQLVESGGGLVQAGGSLRLSCAASGRTFYRNAMGWYRQAPGKERELVARISRNGGTTYYADSVKGRFTISRDNAKNTVYLQMNSLKPEDTAVYYCAAPIYDGARGDYWGQGTQVTVSS | high polyreactivity
7 | QVQLVESGGGLVQAGGNLRLSCAASGSIFYWNAMGWYRQAPGKERELVAAINYSGDSTYYADSVKVRFTISRDNAKNTVYLQMNSLKPEDTAVYYCNFDYWGQGSQVTVSS | low polyreactivity
8 | QVQLVESGGGLVQAGGSLRLSCAASGIIFYTYVMGWYRQAPGKEREFVAGISTSGGRTDYADSVKGRFTISRDNAKNTVYLQMNSLKPEDTAVYYCNKLYRYPRYYYWGQGTQVTVSS | high polyreactivity
9 | QVQLVESGGGLVQAGGSLRLSCAASGSIFESNAMGWYRQAPGKEREFVAAIDQNDGSTNYADSVKGRFTISRDNAKNTVYLQMNSLKPEDTAVYYCAKYWGYLGYYEFDYWGQGTQVTVSS | low polyreactivity
10 | QVLLVESGGGLVQAGGSLRLICDDSGFIFTYYAMGLYRQAPVTEREFVAAIRASGGSTYYSYSVKGRFTISRDKAQNTVYLQMNSLKPEETAVYYCAARYRQRLRSTSYDYWGQGTQVTVSS | high polyreactivity
11 | QVQLVESGGGLVQAGGSLRLSCAASGRILKYNALGWYRQAPGKERELVAAISYRGGSTYYADSVKGRFTISRDNAKNTVYLQMNSLKPEDTAVYYCNAGGGILNGPLFDYWGQGTQVTVSS | low polyreactivity
12 | QVQLVESGGGLDQAGGSLRLSCAASGSIFYRNAMGWYRKAPGKERELVAAISWSGSRTYYADSVKVRFTISRDNAKNTVYLQMISLKPEDTAVYYCNRQYNQWIHYYYRMDYWGQGNQVTVSS | high polyreactivity
13 | QVQLVESGGGLVQAGGSLRLSCAASGSTFATYTMGWYRQAPGKERELVAAISSRGGSTYYADSVKGRFTISRDNAKNTGYLQMNSLKPEDTAVYYCNARRSTDPARYYWGQGSQVTVSS | high polyreactivity
14 | QVQLVESGGGLVHAGGSLRLSCASSGFTYSQYVMGWYRQAPGKERELVASITGNGGSTRYADSVKGRFTISRDNANKTVYLQMNCLKPEDTAVYYCDTRVKFSTSYWLYYWGQGTQVTVSS | high polyreactivity
15 | QDQHVESGGGLVQAGGSLRLSCAASGSTFHLYAMGWYRQAPGKERELVATITWRTGSTYYADSVKGRFTISRDNAKNTVYLQMNSLKPEDTAVYYCAAYPYRYSWLDYWGQGTQVTVSS | high polyreactivity
16 | QVQLVESGGGLVQAGGSLRLSCDASGSIFQRYAMGWYRPAPGKERELVAGINWSGGRTYYADSVKGRFTISRDNAKNTVYLQMISLKPEDTAVYYCAAARYTRYDYWGQGTQVTVSS | high polyreactivity

Row | Sequence | polyreactivity (PSR sort gate)
17 | QVQLVESGGGLVQAGGSLRLSCAASGSIFYTNAMGWYRQAPGKERELVAAIRWSGGRTYYADSVKGRFTISRDNAKNTVYLQMNSLKPEDTAVYYCNKVPRTPIPYKYGYWGQGTQVTVSS | high polyreactivity
18 | QVQLVESGGGLVQEGGSLRLSCAASGRTFWAYAMGWYRQAPGKERELVAAITTSGGSTNYADSVKGRFTISRDNAKNTVYLQMNSLKPEDTADYYCNADPTYHVVNGVAYWGQGTQVTVSS | low polyreactivity
19 | QVQRVESGGGLVQAGGSLRVSCAASGSTFYVYGMGWYRQAPGKERELVAAISWSGGDTYYADSVKGRCTISRDNAKNTVYLQMNRLKPEDTAVYYCAAVYNYPVVGEYDYWGQGTQVTVSA | high polyreactivity
20 | QVQLVESGGGLVQAGVSLRLSCVASGLTQPYAMGWYRQAPGKESELVAGISWRGASTYYADSVKGRFTISRDNAKNTVYLQMNSLKPEDTAVSYCAARSTIQRRGYYGYRVGRSEYGYWGQGTQVTVSS | low polyreactivity
21 | QVQLVESGGGLVQAGGSLRLSCAASGRIFLYYTMGWYRQAPGKERELVAAITRSGGSTYYADSVKGRFTISRDNAKNTVYLQMNSLKPEDTAVYYCNRAYVRYVPMNYWGQGTQVTVSS | high polyreactivity
22 | QVQLVESGGGLVQAGGSLRLSCAASGFIFWSYAMGWYRQAPGKERELVAAIDLTGGSTYYADSVKGRFTISRDNAKNTVYLQMNSLKPEDTAVYYCNADGDSYAFTNSDSGFDYWGQGTQVTVSS | low polyreactivity
23 | QVQLVESGGGLVQAGGSLRLSCAASGFTCSTYAMGWYSQAPGKERELVAVISWNGGSTYYADSVKGRFTISRDNANNTVYLQMNSLKPEDTAVYYCDARGSFKQGYWGQGTQVTVSS | high polyreactivity
24 | QVQLEESAGGLVQAGGSLRLSCAASGSIFFFYAKGRYREAPGKERELVAAITGSGGSTYYADSVKGRFTISRVNAKNTVYLQMNSLKPEDTAVYDCAFRTSRQVYSYAGYESWGQGTHVTVSS | low polyreactivity
25 | QVQLVESGGGLVQAGGSLRLSCAASGSIFDPYAMGWYRQAPGKERELVAAITASGSSTYYADSVKGRFTISRDNAKNTVYLQMNSLIPEDTAVYYCAADRANWEYLLSCLGYDYWGQGTQVTVSS | low polyreactivity
26 | QVQLGESGGGLVQAGGSLRLSCAASGRIFYKNTMGWYRQAPGKERELVAAISWRGGSTYYADSVKGRFTISRDNAKNTVYLQMNSLKPEDTAVYYCNADIWAYKYDYWGQGTQVTVSS | high polyreactivity
27 | QVQLVESGGGLVQAGGSLRLSCAASGSIFPWYAMGWYRQAPGKERELVAAITISGGSTHYADSVKGRFTISRDNAKNTVYLQMNRLKPEDTAVYYCATPRYPSYDYWGQGTQVTVSS | low polyreactivity
28 | QVQLVESGGGLVKAGGSLRLSCAASGSTFSRYAKGWYRQAPGKEREFVAAISKSGGGTYYADSVKGRFTISRDNAKNTVYLQMNSMKPEETAVYYCARRVRYKHYDYWGQGSQVTVSS | high polyreactivity
29 | QVQLVESGGGLVQAGGSLRLSCAASGSTFYLYAMGWYRQAPGKERELVASITSGDGSTYYADSVKGRFTISRDNAKNTVYLQMNSLKPEDTAVYYCNAVLEGWFYQYDYWGQGTQVTVSS | low polyreactivity
30 | QVQLVESGGGLVQAGGSLRLSCAASGRTFPVYDMGWYRQAPGKERELVAGITGSGGRTYYADSVKGRFTISRDNAKNTVYLQMNSLKPEDTAVYYCAADRNLYWDQHEYWGQGTQVTVSS | low polyreactivity
31 | QVQLVESGGGLVQAGVSLRLSCAASGSTFYWYAMGWYRQAPGKERELVAAITYSSGRTYYADSEKGRFTISRDNAKNTVYLQMNSLKPEDTAVYYCGWSALNGYDYWGQGTQVTVSS | high polyreactivity
32 | QVQLVESGGGLVQAGGSLRLSCAASGLTFVPYAMGWSRQAPGNERELFAAITWSGGSTYYADSVKGRFTISRDNAKNTVYLQMNSLKQEDTAVYYCAADFLLSTSTEYYYWGHGTQVTVSS | high polyreactivity
